The results in this text go back to patent publication US20130115227A1 (Merck Sharp & Dohme, published 2013).

Numbering of substitutions follows the chain as printed.

Assay [1] addresses T1, amyloid β (Aβ)-derived diffusible ligands (ADDLs) (UniProt P05067 672-713).
T1 construct: domain: Aβ1-42; Soluble oligomers of Aβ1-42, with the number of chains per oligomer not fixed; They were prepared from HFIP film in DMSO/F12 and enriched on a 50 kDa filter; The result sentences say 'ADDLs'; also called ADDL oligomers; soluble …
As to the kind of experiment: ELISA, plate coated with ADDLs (50 pmol/well), anti-human IgG-alkaline phosphatase, luminescence; antibody not stored (0 timepoint). The procedure: (§1) Determination of EC50. High protein binding plates (Costar, Corning, Lowell, Mass.), were coated with target ligand in PBS overnight at 4° C. The concentration of coating protein was 100 pmol/well for Aβ40 (American Peptide, Sunnyvale, Calif.) and 50 pmol/well for ADDLs. ADDLs were generated as described in Example 1B. Next day, plates were washed five times with PBS+0.05% Tween-20 (Sigma Aldrich, St. Louis, Mo.) and blocked overnight with Casein blocking buffer (ThermoScientific, Waltham, Mass.) and 0.05% Tween-20. […] After 2 hours at room temperature incubation, the plates were washed and alkaline phosphatase conjugated anti-human IgG (ThermoScientific, Waltham, Mass.) was added at 0.08 μg/ml. After 45 minutes at room temperature incubation, the plates were washed and Tropix® CDP®-Star chemiluminescent substrate (Life Technologies™, Carlsbad, Calif.) was added. Luminescence was detected after 30 minutes on an EnVision® microplate reader (PerkinElmer, Waltham, Mass.). Curve fits were completed using GraphPad Prism (GraphPad Software, Inc., San Diego, Calif.) software.

Assay [2] has as its target T1, amyloid β (Aβ)-derived diffusible …. Nature of the assay: ELISA, plate coated with ADDLs (50 pmol/well), anti-human IgG-alkaline phosphatase, luminescence; antibody kept one month at 40 °C. The procedure: (§2) The codon AAT for N was mutated to AGT for S in 19.3S33 (SEQ ID NO: 55), ACT for T in 19.3T33 (SEQ ID NO: 56), GAA for E in 19.3E33 (SEQ ID NO: 67), or GAT for D in 19.3D33 (SEQ ID NO: 68), and the new condons in that position were confirmed by DNA sequencing. […] The expression and purification methods were described above in this example.
as §1, with “Mass.).” for “Mass.). Curve fits were completed using GraphPad Prism (GraphPad Software, Inc., San Diego, Calif.) software.”

Assay [3] shares this target. Nature of the assay: ELISA, plate coated with ADDLs (50 pmol/well), anti-human IgG-alkaline phosphatase, luminescence; antibody kept one month at 25 °C. The procedure: as §2
as §1, with “Mass.).” for “Mass.). Curve fits were completed using GraphPad Prism (GraphPad Software, Inc., San Diego, Calif.) software.”
In general terms: ELISA stands for enzyme-linked immunosorbent assay.

Assay [4] has the same target. As to the kind of experiment: ELISA, plate coated with ADDLs (50 pmol/well), anti-human IgG-alkaline phosphatase, luminescence; antibody kept one month at 4 °C. As for the experimental part:
as §2
as §1, with “Mass.).” for “Mass.). Curve fits were completed using GraphPad Prism (GraphPad Software, Inc., San Diego, Calif.) software.”

Assay [5] has the same target. Nature of the assay: phage/Fab ELISA on ADDLs, anti-M13-HRP detection. The procedure:
Biotinylated ADDLs (bADDLs) or monomer Aβ1-40 or Aβ1-42 was added to a high-capacity streptavidin-coated plate (Sigma-Aldrich, St. Louis, Mo.) with 100 μL per well of coating reagent in PBS at 1 μM and incubated for two hours at room temperature. The plates were washed in PBS with 0.05% Tween (six times) and then PBS alone (three times) prior to blocking wells with 5% non-fat dry milk in PBS for one hour at room temperature. The wells were then washed and a serial dilution of antibody samples added to the plates and allowed to bind for two hours at room temperature. After incubation and washing, the antibody binding was detected with a goat anti-human IgG-Fc secondary antibody conjugated to horse radish peroxidase (HRP) (1:1,000; one hour at room temperature). The HRP label was visualized with tetramethyl benzidine (Virolabs, Chantilly, Va.) as a substrate and read at 450 nm on a microplate reader.
After each round of panning, single colonies were randomly picked to produce phage in 96-well plates. The procedures for phage preparation in 96-well plate were similar to that described above except no phage precipitation step was used. Culture plates containing colonies growing in 120 μL of 2×TY medium with 100 μg/ml ampicillin and 0.1% glucose were incubated overnight in a HiGro® shaker (Genomic Solutions, Ann Arbor, Mich.) at 30° C. with shaking at 450 rpm. The phage supernatants (about 100 μL) were directly used for analysis in the ADDL binding ELISA described above. One difference is that the binding of phage to ADDLs was detected with an anti-M13-antibody conjugated to HRP (Amersham Bioscience, GE Healthcare, Waukesha, Wis.).

The target is the same in assay [6]. Nature of the assay: KinExA, equilibrium constant in solution. A general note: In KinExA the mixture passes briefly over coated beads that capture the unbound partner.
For assay [7] the target is unchanged. Nature of the assay: Biacore (SPR). On the technique in general: SPR reads the build-up and loss of mass on a sensor chip optically.
Assay [8] shares this target. As to the kind of experiment: Biacore (SPR); affinity for Aβ1-40 monomer over affinity for ADDLs.
The target is the same in assay [9]. As to the kind of experiment: KinExA; constant for Aβ1-40 monomer over constant for ADDLs.
The target is the same in assay [10]. As to the kind of experiment: ELISA, plate coated with ADDLs (50 pmol/well), 12 point antibody titration, anti-human IgG-alkaline phosphatase, luminescence. The procedure:
as §1

T1 sequence (P05067 672-713 limits assumed): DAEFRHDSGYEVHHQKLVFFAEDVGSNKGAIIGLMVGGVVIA

B1: anti-ADDL antibody 19.3 (antibody, human IgG2, kappa, V domains shown)
VH: EVQLVESGGGLVQPGGSLRLSCAASGFTFSSFGMHWVRQAPGKGLEWVAYISRGSSTIYYADTVKGRFTISRDNAKNSLYLQMNSLRAEDTAVYYCARGITTALDYWGQGTLVTVSS
VL: DVVMTQSPLSLPVTPGEPASISCRSSQSIVHSNGNTYLEWYLQKPGQSPQLLIYKASNRFSGVPDRFSGSGSGTDFTLKISRVEAEDVGVYYCFQGSRLGPSFGQGTKLEIKR
notes: The same paragraph also says all VH were cloned into an IgG1 expression vector; copies: 2 + 2
As for B1, the “EC50 (read off the curve)” value was approximately 1 nM in assay [1], approximately 6 nM in [2], approximately 2 nM in [3] and approximately 2 nM in assay [4].

B2: Fab clone 14.2 (phage-displayed) (Fab, V domains shown)
VH: B1 VH
VL: DVVMTQSPLSLPVTPGEPASISCRSSQSIVHSNGNTYLEWYLQKPGQSPQLLIYKASNRFSGVPDRFSGSGSGTDFTLKISRVEAEDVGVYYCFQGSRVPPGFGQGTKLEIK
notes: VH is deduced from the parental VH being kept in the library
In the case of B2, in assay [5], the binding result is on record as “binds”.

B3: humanized anti-ADDL antibody h3B3 (antibody, V domains shown)
VH: B1 VH
VL: B2 VL with R98H, G102T
notes: Parental antibody; also called humanized 3B3; h3B3 (parental)
In the case of B3, the results for the Kd in [6] and in assay [7] were 3.3 nM and 10 nM, respectively. The “Ratio (Aβ monomer/ADDL)” value worked out at 10 in [8] and 13.6 in assay [9].

B4: anti-ADDL antibody 19.3S33 (antibody, V domains shown)
VH: B1 VH
VL: B1 VL with N33S
With B4, the binding result in assay [10] was “binds”.

B5: Fab clone 7.2 (phage-displayed) (Fab, V domains shown)
VH: B1 VH
VL: B2 VL with R98Y, V99A
notes: as for B2
Consider B5, for which the binding result in [5] is “binds”.

B6: anti-ADDL antibody 19.3T33 (antibody, V domains shown)
VH: B1 VH
VL: B1 VL with N33T
For the molecule B6, the binding result in [10] is “binds”.

B7: Fab clone 11.4 (phage-displayed) (Fab, V domains shown)
VH: B1 VH
VL: B2 VL with P101V, G102R
notes: as for B2
For B7, the binding result in assay [5] is reported as “binds”.

B8: Fab clone 13.1 (phage-displayed) (Fab, V domains shown)
VH: B1 VH
VL: B2 VL with R98K, V99A, P100H, G102S
notes: as for B2
For the molecule B8, the binding result in assay [5] is “binds”.

B9: Fab clone 9.2 (phage-displayed) (Fab, V domains shown)
VH: B1 VH
VL: B2 VL with V99A, G102F
notes: as for B2
Regarding B9, the binding result in assay [5] is listed as “binds”.

As a reminder, the EC50 (read off the curve) is the concentration needed to bring the measured effect to its halfway point. Read a low EC50 (read off the curve) as an effect from little substance. What is called Kd is a measure of binding affinity in units of concentration.
